Test results as given in article PMC5567343, “Flow-induced elongation of von Willebrand factor precedes tension-dependent activation” (Nature Communications, 2017).

Key:
Details in all cases: both partners purified
[1] = molecular target: T1, Recombinant human von Willebrand factor concatemers, labeled with biotin and Alexa Fluor 488 (human, UniProt P04275 764-2813, biotin (~0.3 per monomer, from Sulfo-NHS-LC-Biotin); Alexa Fluor 488 (0.67 fluorophore/monomer)); assay: two-colour single-molecule TIRF imaging under flow; as a1 but 10 mM NaCl; VWF regions at average tension 12 ± 2.2 pN; apparent kon and koff, KD = koff/kon
T1 construct: Disulfide-linked concatemers of varying length; held on the flow-chamber wall through biotin and Traptavidin; also called VWF; VWF concatemer; source: Chinese hamster ovary cells, furin-treated, purified to >99% (Baxter BioScience); labeled, Sepharose CL-2B gel filtration, fraction 1; copies: ~20-200

[2] = molecular target: T1, Recombinant human von Willebrand factor …; assay: two-colour single-molecule TIRF imaging under flow; as a1; 150 mM NaCl; VWF regions at average tension 44 ± 2.3 pN; apparent kon and koff, KD = koff/kon
[3] = molecular target: T1, Recombinant human von Willebrand factor …; assay: two-colour single-molecule TIRF imaging under flow; as a1 but 10 mM NaCl; combined fit of the two highest force bins, tension 40-56 pN; apparent kon and koff, KD = koff/kon
[4] = molecular target: T1, Recombinant human von Willebrand factor …; assay: two-colour single-molecule TIRF imaging under flow; as a1; 150 mM NaCl; combined fit of the two highest force bins, tension 40-56 pN, where activation by force is maximal; apparent kon and koff, KD = koff/kon
[5] = molecular target: T1, Recombinant human von Willebrand factor …; assay: two-colour single-molecule TIRF imaging under flow; biotin/Alexa 488-VWF tethered to Traptavidin on the chamber wall, Alexa 647-GPIbα in solution at five concentrations; association kinetics after shift from 0 to 1280 dyn cm^-2; 150 mM NaCl, 20 mM HEPES pH 7.4, 0.02% Tween 20; VWF regions at average tension 12 ± 2.2 pN; apparent kon and koff, 1:1 fit, KD = koff/kon
[6] = molecular target: T1, Recombinant human von Willebrand factor …; assay: two-colour single-molecule TIRF imaging under flow; dissociation of GPIbα after flow cessation from 1280 to 0 dyn cm^-2, 57 fps, 20 concatemers, three flow cycles each; 100 nM GPIbα, 150 mM NaCl
[7] = molecular target: T1, Recombinant human von Willebrand factor …; assay: two-colour single-molecule TIRF imaging under flow; as a1 but 10 mM NaCl; VWF regions at average tension 36 ± 2.3 pN; apparent kon and koff, KD = koff/kon
[8] = molecular target: T1, Recombinant human von Willebrand factor …; assay: two-colour single-molecule TIRF imaging under flow; as a1 but 10 mM NaCl; VWF regions at average tension 20 ± 2.3 pN; apparent kon and koff, KD = koff/kon
[9] = molecular target: T1, Recombinant human von Willebrand factor …; assay: two-colour single-molecule TIRF imaging under flow; as a1 but 10 mM NaCl; VWF regions at average tension 44 ± 2.3 pN; apparent kon and koff, KD = koff/kon
[10] = molecular target: T1, Recombinant human von Willebrand factor …; assay: two-colour single-molecule TIRF imaging under flow; as a1; 150 mM NaCl; VWF regions at average tension 52 ± 2.3 pN; apparent kon and koff, KD = koff/kon
[11] = molecular target: T1, Recombinant human von Willebrand factor …; assay: two-colour single-molecule TIRF imaging under flow; as a1; 150 mM NaCl; VWF regions at average tension 36 ± 2.3 pN; apparent kon and koff, KD = koff/kon
[12] = molecular target: T1, Recombinant human von Willebrand factor …; assay: two-colour single-molecule TIRF imaging under flow; as a1; 150 mM NaCl; VWF regions at average tension 20 ± 2.3 pN; apparent kon and koff, KD = koff/kon
[13] = molecular target: T1, Recombinant human von Willebrand factor …; assay: two-colour single-molecule TIRF imaging under flow; as a1 but 10 mM NaCl; VWF regions at average tension 52 ± 2.3 pN; apparent kon and koff, KD = koff/kon
[14] = molecular target: T1, Recombinant human von Willebrand factor …; assay: two-colour single-molecule TIRF imaging under flow; as a1 but 10 mM NaCl; VWF regions at average tension 28 ± 2.3 pN; apparent kon and koff, KD = koff/kon
[15] = molecular target: T1, Recombinant human von Willebrand factor …; assay: two-colour single-molecule TIRF imaging under flow; as a1; 150 mM NaCl; VWF regions at average tension 28 ± 2.3 pN; apparent kon and koff, KD = koff/kon

B1: Wild-type human platelet GPIbα (His1 to Arg290), Alexa Fluor 647-labeled (domain or fragment, UniProt P07359 17-306, looked up)
chain: HPICEVSKVASHLEVNCDKRNLTALPPDLPKDTTILHLSENLLYTFSLATLMPYTRLTQLNLDRCELTKLQVDGTLPVLGTLDLSHNQLQSLPLLGQTLPALTVLDVSFNRLTSLPLGALRGLGELQELYLKGNELKTLPPGLLTPTPKLEKLSLANNNLTELPAGLLNGLENLDTLLLQENSLYTIPKGFFGSHLLPFAFLHGNPWLCNCEILYFRRWLQDNAENVYVWKQGVDVKAMTSNVASVQCDNSDKFPVYKYPGKGCPTLGDEGDTDLYDYYPEEDTEGDKVR
modifications: Alexa Fluor 647 (NHS ester; fluorophore:GPIbα 1.01:1)
notes: platelet glycoprotein Ib alpha chain, human, wild type, His1 to Arg290; also called GPIα-Alexa Fluor 647; source: HEK293T, transiently transfected, culture supernatant, purified (Ni-NTA, Superdex 200 SEC)
Kd [1]: 0.0053 µM
koff [1]: 1.1 s⁻¹
kon [1]: 2.13e+08 M⁻¹ s⁻¹
Kd [2]: 0.085 µM
koff [2]: 4.2 s⁻¹
kon [2]: 4.9e+07 M⁻¹ s⁻¹
Kd [3]: 0.0006 µM
koff [3]: 0.3 s⁻¹
kon [3]: 5.38e+08 M⁻¹ s⁻¹
Kd [4]: 0.078 µM
koff [4]: 3.9 s⁻¹
kon [4]: 5e+07 M⁻¹ s⁻¹
Kd [5]: 18 µM
koff [5]: 2.3 s⁻¹
kon [5]: 100000 M⁻¹ s⁻¹
koff [6]: ≥ 23 s⁻¹
Kd [7]: 0.0008 µM
koff [7]: 0.4 s⁻¹
kon [7]: 5.08e+08 M⁻¹ s⁻¹
Kd [8]: 0.0041 µM
koff [8]: 1.1 s⁻¹
kon [8]: 2.61e+08 M⁻¹ s⁻¹
Kd [9]: 0.0006 µM
koff [9]: 0.3 s⁻¹
kon [9]: 5.38e+08 M⁻¹ s⁻¹
Kd [10]: 0.071 µM
koff [10]: 3.6 s⁻¹
kon [10]: 5.1e+07 M⁻¹ s⁻¹
Kd [11]: 0.068 µM
koff [11]: 3.3 s⁻¹
kon [11]: 4.9e+07 M⁻¹ s⁻¹
Kd [12]: 0.29 µM
koff [12]: 3.8 s⁻¹
kon [12]: 1.3e+07 M⁻¹ s⁻¹
Kd [13]: 0.0006 µM
koff [13]: 0.3 s⁻¹
kon [13]: 5.38e+08 M⁻¹ s⁻¹
Kd [14]: 0.0011 µM
koff [14]: 0.5 s⁻¹
kon [14]: 4.65e+08 M⁻¹ s⁻¹
Kd [15]: 0.102 µM
koff [15]: 3.5 s⁻¹
kon [15]: 3.5e+07 M⁻¹ s⁻¹
